Patent US20180044434A1 (PUBLIC UNIVERSITY CORPORATION YOKOHAMA CITY UNIVERSITY, published 2018)
Numbering of substitutions follows the chain as printed. Each block holds one binder with its values, some of them ahead of it.

Biological target: T1, full-length recombinant human PAD4 (human, UniProt Q9UM07 1-663)
T1 construct: Full-length recombinant; also called peptidylarginine deiminase 4
Experiment: ELISA, immobilized human PAD4

T1 sequence (Q9UM07 whole entry): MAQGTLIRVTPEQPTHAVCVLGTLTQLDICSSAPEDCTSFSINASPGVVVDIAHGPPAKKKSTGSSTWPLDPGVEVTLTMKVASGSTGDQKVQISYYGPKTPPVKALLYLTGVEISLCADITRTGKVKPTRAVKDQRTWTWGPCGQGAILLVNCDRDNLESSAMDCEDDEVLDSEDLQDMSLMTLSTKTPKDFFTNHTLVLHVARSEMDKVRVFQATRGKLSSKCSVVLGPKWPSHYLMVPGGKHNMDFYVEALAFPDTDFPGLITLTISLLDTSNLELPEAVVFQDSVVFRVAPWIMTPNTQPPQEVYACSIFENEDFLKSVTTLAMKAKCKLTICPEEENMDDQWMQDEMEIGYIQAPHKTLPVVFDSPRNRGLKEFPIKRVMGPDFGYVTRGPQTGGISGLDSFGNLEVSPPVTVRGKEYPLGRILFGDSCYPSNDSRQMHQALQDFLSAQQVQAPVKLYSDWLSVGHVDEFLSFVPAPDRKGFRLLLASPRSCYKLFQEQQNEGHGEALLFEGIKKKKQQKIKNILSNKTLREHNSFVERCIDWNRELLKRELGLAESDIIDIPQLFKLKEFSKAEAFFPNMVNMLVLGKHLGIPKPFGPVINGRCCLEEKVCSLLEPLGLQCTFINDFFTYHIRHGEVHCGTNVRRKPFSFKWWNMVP

B1: humanized anti-PAD4 antibody derived from H7, VH H4.00 / VL L4.15 (antibody, IgG1, V domains shown)
VH: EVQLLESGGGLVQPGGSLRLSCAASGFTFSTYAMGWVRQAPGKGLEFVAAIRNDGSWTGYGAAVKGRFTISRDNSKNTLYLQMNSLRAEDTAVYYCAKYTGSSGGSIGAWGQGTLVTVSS
VL: SYELTQPPSVSVSPGQTARITCSGGSGRYYYGWYQQKPGQAPVTVIYSSTHRPSGIPERFSGSNSGNTTTLTISGVQAEDEADYYCGTADSSSYVFGGGTKLTVLG
notes: IgG1 kappa; also called H7 H4.00/L4.15
O.D. 490/630 at 0.0078125 µg/mL: 1.31
O.D. 490/630 at 0.015625 µg/mL: 1.71
O.D. 490/630 at 0.03125 µg/mL: 1.89
O.D. 490/630 at 0.0625 µg/mL: 1.92
O.D. 490/630 at 0.125 µg/mL: 1.87
O.D. 490/630 at 0.25 µg/mL: 1.89
O.D. 490/630 at 0.5 µg/mL: 1.87
O.D. 490/630 at 1 µg/mL: 1.86

B2: humanized anti-PAD4 antibody derived from H7, VH H4.15 / VL L4.06 (antibody, IgG1, V domains shown)
VH: EVQLLESGGGLVQPGGSLRLSCAASGFTFSTYAMGWVRQAPGKGLEFVSAIRNDGSWTGYGAAVKGRFTISRDNSKNTVYLQMNSLRAEDTAVYYCAKYTGSSGGSIGAWGQGTLVTVSS
VL: B1 VL with N64Y
notes: IgG1 kappa; also called H7 H4.15/L4.06
O.D. 490/630 at 0.0078125 µg/mL: 1.22
O.D. 490/630 at 0.015625 µg/mL: 1.68
O.D. 490/630 at 0.03125 µg/mL: 1.82
O.D. 490/630 at 0.0625 µg/mL: 1.83
O.D. 490/630 at 0.125 µg/mL: 1.84
O.D. 490/630 at 0.25 µg/mL: 1.82
O.D. 490/630 at 0.5 µg/mL: 1.82
O.D. 490/630 at 1 µg/mL: 1.84

B5: humanized anti-PAD4 antibody derived from G8, VH H4.00 / VL L4.06 (antibody, human IgG1, kappa, V domains shown)
VH: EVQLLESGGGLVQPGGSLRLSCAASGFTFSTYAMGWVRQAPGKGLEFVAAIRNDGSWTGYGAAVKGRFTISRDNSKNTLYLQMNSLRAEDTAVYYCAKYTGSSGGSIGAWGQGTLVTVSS
VL: SYELTQPPSVSVSPGQTARITCSGGNRNYYYGWYQQKPGQAPVTVIYANDKRPSGIPERFSGSYSGNTTTLTISGVQAEDEADYYCGTADTGKYVFGGGTKLTVLG
notes: IgG1 kappa; also called G8 H4.00/L4.06
O.D. 490/630 at 0.0078125 µg/mL: 1.22
O.D. 490/630 at 0.015625 µg/mL: 1.64
O.D. 490/630 at 0.03125 µg/mL: 1.83
O.D. 490/630 at 0.0625 µg/mL: 1.95
O.D. 490/630 at 0.125 µg/mL: 1.85
O.D. 490/630 at 0.25 µg/mL: 1.81
O.D. 490/630 at 0.5 µg/mL: 1.83
O.D. 490/630 at 1 µg/mL: 1.8

B9: humanized anti-PAD4 antibody derived from H7, VH H4.00 / VL L4.00 (antibody, IgG1, V domains shown)
VH: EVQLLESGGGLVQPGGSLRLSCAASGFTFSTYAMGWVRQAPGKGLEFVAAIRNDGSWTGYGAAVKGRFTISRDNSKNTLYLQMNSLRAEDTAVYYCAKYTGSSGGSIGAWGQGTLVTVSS
VL: B1 VL with T44L, N64S, N67T, T69V
notes: IgG1 kappa; also called H7 H4.00/L4.00
O.D. 490/630 at 0.0078125 µg/mL: 0.441
O.D. 490/630 at 0.015625 µg/mL: 0.752
O.D. 490/630 at 0.03125 µg/mL: 1.21
O.D. 490/630 at 0.0625 µg/mL: 1.72
O.D. 490/630 at 0.125 µg/mL: 1.88
O.D. 490/630 at 0.25 µg/mL: 1.89
O.D. 490/630 at 0.5 µg/mL: 1.91
O.D. 490/630 at 1 µg/mL: 1.92

B10: humanized anti-PAD4 antibody derived from G8, VH H4.00 / VL L4.17 (antibody, human IgG1, kappa, V domains shown)
VH: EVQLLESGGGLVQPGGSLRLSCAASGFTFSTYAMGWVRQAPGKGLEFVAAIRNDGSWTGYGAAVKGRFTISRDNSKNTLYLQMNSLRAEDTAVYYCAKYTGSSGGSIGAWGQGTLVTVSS
VL: B5 VL with Y64T
notes: IgG1 kappa; also called G8 H4.00/L4.17
O.D. 490/630 at 0.0078125 µg/mL: 1.31
O.D. 490/630 at 0.015625 µg/mL: 1.62
O.D. 490/630 at 0.03125 µg/mL: 1.84
O.D. 490/630 at 0.0625 µg/mL: 1.89
O.D. 490/630 at 0.125 µg/mL: 1.82
O.D. 490/630 at 0.25 µg/mL: 1.81
O.D. 490/630 at 0.5 µg/mL: 1.8
O.D. 490/630 at 1 µg/mL: 1.8

The remaining lines, values ahead:

O.D. 490/630 at 0.0078125 µg/mL: 1.22
O.D. 490/630 at 0.015625 µg/mL: 1.64
O.D. 490/630 at 0.03125 µg/mL: 1.9
O.D. 490/630 at 0.0625 µg/mL: 1.94
O.D. 490/630 at 0.125 µg/mL: 1.82
O.D. 490/630 at 0.25 µg/mL: 1.86
O.D. 490/630 at 0.5 µg/mL: 1.81
O.D. 490/630 at 1 µg/mL: 1.77
B3: humanized anti-PAD4 antibody derived from H7, VH H4.32 / VL L4.06 (antibody, IgG1, V domains shown)
VH: B2 VH with S49A, F68V
VL: B1 VL with N64Y
notes: IgG1 kappa; also called H7 H4.32/L4.06

O.D. 490/630 at 0.0078125 µg/mL: 1.28
O.D. 490/630 at 0.015625 µg/mL: 1.77
O.D. 490/630 at 0.03125 µg/mL: 1.95
O.D. 490/630 at 0.0625 µg/mL: 1.98
O.D. 490/630 at 0.125 µg/mL: 1.86
O.D. 490/630 at 0.25 µg/mL: 1.86
O.D. 490/630 at 0.5 µg/mL: 1.81
O.D. 490/630 at 1 µg/mL: 1.79
B4: humanized anti-PAD4 antibody derived from H7, VH H4.32 / VL L4.17 (antibody, IgG1, V domains shown)
VH: B2 VH with S49A, F68V
VL: B1 VL with N64T
notes: IgG1 kappa; also called H7 H4.32/L4.17

O.D. 490/630 at 0.0078125 µg/mL: 1.31
O.D. 490/630 at 0.015625 µg/mL: 1.63
O.D. 490/630 at 0.03125 µg/mL: 1.81
O.D. 490/630 at 0.0625 µg/mL: 1.9
O.D. 490/630 at 0.125 µg/mL: 1.81
O.D. 490/630 at 0.25 µg/mL: 1.81
O.D. 490/630 at 0.5 µg/mL: 1.82
O.D. 490/630 at 1 µg/mL: 1.77
B6: humanized anti-PAD4 antibody derived from H7, VH H4.15 / VL L4.17 (antibody, IgG1, V domains shown)
VH: B2 VH
VL: B1 VL with N64T
notes: IgG1 kappa; also called H7 H4.15/L4.17

O.D. 490/630 at 0.0078125 µg/mL: 0.389
O.D. 490/630 at 0.015625 µg/mL: 0.713
O.D. 490/630 at 0.03125 µg/mL: 1.17
O.D. 490/630 at 0.0625 µg/mL: 1.65
O.D. 490/630 at 0.125 µg/mL: 1.77
O.D. 490/630 at 0.25 µg/mL: 1.85
O.D. 490/630 at 0.5 µg/mL: 1.81
O.D. 490/630 at 1 µg/mL: 1.82
B7: humanized anti-PAD4 antibody derived from H7, VH H4.32 / VL L4.00 (antibody, IgG1, V domains shown)
VH: B2 VH with S49A, F68V
VL: B1 VL with T44L, N64S, N67T, T69V
notes: IgG1 kappa; also called H7 H4.32/L4.00

O.D. 490/630 at 0.0078125 µg/mL: 1.25
O.D. 490/630 at 0.015625 µg/mL: 1.65
O.D. 490/630 at 0.03125 µg/mL: 1.82
O.D. 490/630 at 0.0625 µg/mL: 1.87
O.D. 490/630 at 0.125 µg/mL: 1.83
O.D. 490/630 at 0.25 µg/mL: 1.84
O.D. 490/630 at 0.5 µg/mL: 1.83
O.D. 490/630 at 1 µg/mL: 1.82
B8: humanized anti-PAD4 antibody derived from H7, VH H4.15 / VL L4.15 (antibody, IgG1, V domains shown)
VH: B2 VH
VL: B1 VL
notes: IgG1 kappa; also called H7 H4.15/L4.15
